Square brackets hold non-standard residues; d marks the D form. Primed or numbered codes have the meaning given here. Lys(N3) = [N-]=[N+]=NCCCC[C@H](N)C(=O)O; prA″ = not defined here

Here are results for two substances from US12673115B2, “Nucleic acid-peptide-nucleic acid conjugate molecules and methods of making the same” (ARIZONA BOARD OF REGENTS ON BEHALF OF ARIZONA STATE …, priority 2021, dated 2026).

Experiment [1] deals with T1, human matrix metalloproteinase 8 (MMP8) (Homo sapiens, UniProt P22894).
T1 construct: purchased PerkinElmer
T1 sequence (P22894 101-467): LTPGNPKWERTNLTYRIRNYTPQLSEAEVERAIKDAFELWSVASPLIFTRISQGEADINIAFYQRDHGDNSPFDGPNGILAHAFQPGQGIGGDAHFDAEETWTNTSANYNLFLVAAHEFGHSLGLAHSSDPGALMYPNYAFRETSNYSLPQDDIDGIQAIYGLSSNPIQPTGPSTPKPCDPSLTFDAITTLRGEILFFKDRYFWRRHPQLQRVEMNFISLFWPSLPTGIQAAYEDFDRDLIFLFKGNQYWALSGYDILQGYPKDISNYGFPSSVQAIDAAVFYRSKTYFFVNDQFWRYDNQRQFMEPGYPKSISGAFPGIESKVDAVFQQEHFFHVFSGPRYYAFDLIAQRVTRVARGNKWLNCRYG
Description: Cleavage of peptide-linked DX tile dimer by MMP8, native PAGE. It is filed as biochemical. The settings on record: 4 ng protein, incubation for 48 h at 37° C. in PBS. From the text: As previously mentioned, one of our goals for these DPD triblock molecules is to use them as enzymatically-cleavable latches for a DNA nanostructure, e.g. to close the lid of a DNA origami box or “nano-bot”. To probe this effect, we used our DPD triblock to link together two model DNA nanostructures: double crossover (“DX” tiles), defined nanoscale objects 14 nm in length and 4 nm wide. DX tiles are composed of five unique strands—two edge strands, one central strand, and two crossover strands—and we designed two tiles that would have DNA1 and DNA2 as respective crossover strands (see FIG. 3A and Examples for tile design and strand composition). We surmised that upon annealing (95-4° C., over 2 h) the constituent strands for these tiles with the DNA1-MMPpep-DNA2 conjugate both tiles would form simultaneously, with the full hybridization of DNA1 and DNA2 into the corresponding tiles breaking the DPD hairpin. Addition of MMP8 to the DX tile dimer should cleave MMPpep, and restore the two separate DNA nanostructures.
We probed this system by native (non-denaturing) PAGE, FIG. 3A. Lanes 1 and 2 show the annealed DX tile with DNA2 incorporated, and the second DX tile with DNA1-MMPpep-(prA) respectively. […]
Polyacrylamide gel electrophoresis (PAGE). […] DX tiles were analyzed using 6% native polyacrylamide gels, with 1×TAE containing 12.5 mM Mg^2+ as a running buffer, at 200 V for 160 min.

The subject of experiment [2] is integrin. The settings on record: cyclic conformation approximating presentation on fibronectin; cited from earlier work.

For the substance “(prA)GQGIPQGWGG(azK) ({prA″}-GQGIPQGWGG[Lys(N3)]-NH2; not fully specified; printed as (prA)GQGIPQGWGG(azK); reading uncertain) [MMPpep-scram, tested as linker of a tile dimer]”, the “cleavage of DX tile dimer to individual tiles after addition of MMP8” value in experiment [1] is on record as “did not show any cleavage to individual tiles”. In the case of RGDS, the “increase in binding efficiency on constraining in a cyclic conformation” value in experiment [2] was “several orders of magnitude”.
